The term Kd denotes the free concentration of one partner at which half of the binding sites on the other are occupied at equilibrium, for simple one-to-one binding. Lower therefore signals higher affinity.

Holding throughout (assay): BLI
Holding throughout (settings): both partners purified

Experiment [1] concerns the target biotinylated HA0 ectodomain of A/Panama/2007/1999 (H3N2) (Influenza A virus A/Panama/2007/1999 …, UniProt Q1K9M3, strain, biotin on the BirA biotinylation site).
Experiment [2] concerns the target biotinylated HA0 ectodomain of A/Beijing/262/1995 (H1N1) (Influenza A virus A/Beijing/262/1995 …, UniProt Q6WG01, strain, biotin on the BirA biotinylation site).
For experiment [3], the target named is biotinylated HA0 ectodomain of A/Perth/16/2009 (H3N2) (Influenza A virus A/Perth/16/2009 (H3N2), UniProt C6KNH7, strain, biotin on the BirA biotinylation site).
Experiment [4] deals with biotinylated HA0 ectodomain of A/Solomon Islands/3/2006 (H1N1) (Influenza A virus A/Solomon …, UniProt A7Y8I1, strain, biotin on the BirA biotinylation site).
Experiment [5] concerns the target biotinylated HA0 ectodomain of A/New Caledonia/20/1999 (H1N1) (Influenza A virus A/New …, UniProt Q6WG00, strain, biotin on the BirA biotinylation site).

B1: wild-type C05 Fab (VVSAGW), expressed in insect cells (Fab, V domains shown)
VH: QVQLQESGGGLVQPGESLRLSCVGSGSSFGESTLSYYAVSWVRQAPGKGLEWLSIINAGGGDIDYADSVEGRFTISRDNSKETLYLQMTNLRVEDTGVYYCAKHMSMQQVVSAGWERADLVGDAFDVWGQGTMVTVSS
VL: DIQLTQSPSSLSASVGDRVTLTCQASQDIRKFLNWYQQKPGKGPKLLIYDASNLQRGVPSRFSGGGSGTDFTLIISSLQPEDVGTYYCQQYDGLPFTFGGGTKVVIK
Regarding B1, the dissociation constant Kd turned out to be 926 ± 12.1 nM in experiment [1]; 23.1 ± 0.6 nM in experiment [2]; 23.4 ± 0.1 nM in experiment [3]; 91.4 ± 0.9 nM in experiment [4]; 6.3 ± 0.1 nM in experiment [5].

B2: C05 Fab variant VTGSGW, expressed in insect cells (Fab, V domains shown)
VH: QVQLQESGGGLVQPGESLRLSCVGSGSSFGESTLSYYAVSWVRQAPGKGLEWLSIINAGGGDIDYADSVEGRFTISRDNSKETLYLQMTNLRVEDTGVYYCAKHMSMQQVTGSGWERADLVGDAFDVWGQGTMVTVSS
VL: DIQLTQSPSSLSASVGDRVTLTCQASQDIRKFLNWYQQKPGKGPKLLIYDASNLQRGVPSRFSGGGSGTDFTLIISSLQPEDVGTYYCQQYDGLPFTFGGGTKVVIK
With B2, the Kd in experiment [1] turned out to be 4340 ± 207 nM; in experiment [2], 182.3 ± 0.5 nM; in experiment [3], 125.1 ± 1.2 nM; in experiment [4], 116 ± 1.9 nM; in experiment [5], 1.1 ± 0.2 nM.

B3: C05 Fab variant VVSSGW, expressed in insect cells (Fab, V domains shown)
VH: QVQLQESGGGLVQPGESLRLSCVGSGSSFGESTLSYYAVSWVRQAPGKGLEWLSIINAGGGDIDYADSVEGRFTISRDNSKETLYLQMTNLRVEDTGVYYCAKHMSMQQVVSSGWERADLVGDAFDVWGQGTMVTVSS
VL: DIQLTQSPSSLSASVGDRVTLTCQASQDIRKFLNWYQQKPGKGPKLLIYDASNLQRGVPSRFSGGGSGTDFTLIISSLQPEDVGTYYCQQYDGLPFTFGGGTKVVIK
Consider B3, for which the Kd in experiment [1] amounted to 1290 ± 71 nM; in experiment [2], 259 ± 2.8 nM; in experiment [3], 43.7 ± 0.5 nM; in experiment [4] it was 4.6 ± 0.6 nM; in experiment [5] it was 2.9 ± 0.1 nM.

For the origin of these results see publication PMC5440694 (Nature Communications, 2017).
